Where two headings read alike, the source gives them in different places.
Columns and labels:
[1] = molecular target: T1, his-tagged human CDH6 extracellular region protein (hCDH6 ECD-his) (human, UniProt P55285 19-615); assay: ELISA, coated antigen
T1 construct: also called Human CDH6-his; hCDH6-his; not shown: his tag
T1 sequence: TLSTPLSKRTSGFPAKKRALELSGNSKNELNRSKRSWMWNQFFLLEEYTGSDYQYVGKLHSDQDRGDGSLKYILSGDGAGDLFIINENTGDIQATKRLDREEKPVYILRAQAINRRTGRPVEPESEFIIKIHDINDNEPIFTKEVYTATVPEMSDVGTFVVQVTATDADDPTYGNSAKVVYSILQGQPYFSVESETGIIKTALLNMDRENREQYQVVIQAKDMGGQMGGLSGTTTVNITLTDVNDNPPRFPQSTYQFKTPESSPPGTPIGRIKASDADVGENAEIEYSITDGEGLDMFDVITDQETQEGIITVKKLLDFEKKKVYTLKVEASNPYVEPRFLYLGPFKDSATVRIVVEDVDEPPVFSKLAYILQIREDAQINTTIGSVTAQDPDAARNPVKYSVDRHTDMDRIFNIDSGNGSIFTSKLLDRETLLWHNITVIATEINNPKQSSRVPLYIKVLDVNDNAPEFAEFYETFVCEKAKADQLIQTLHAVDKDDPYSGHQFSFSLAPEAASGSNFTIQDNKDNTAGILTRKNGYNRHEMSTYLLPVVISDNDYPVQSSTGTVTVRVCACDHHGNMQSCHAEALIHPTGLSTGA

[2] = molecular target: T1, his-tagged human CDH6 extracellular …; assay: SPR Biacore, antibody captured on Protein A
Method: (§1) The affinity of the antibody for the antigen was determined by a multi-cycle kinetic method using a BIAcore 8K instrument. In each cycle, the antibody to be tested was captured using a Protein A chip (purchased from GE, Cat. No. 29-1275-56), and then the antigen human CDH6 protein (hCDH6-his, conventionally synthesized) was injected. The association and dissociation processes of the antibody with the antigen protein were recorded, and finally, the chip was regenerated using Glycine pH 1.5, wherein the mobile phase was HBS-EP+ (10 mM HEPES, 150 mM NaCl, 3 mM EDTA, 0.05% surfactant P20, and 1 mM Ca), the flow rate was 30 μL/min, the association time was 240 s, the dissociation time was 300 s, the regeneration time was 30 s, the detection temperature was 25° C., and the antigen concentration was 31.25-1000 nM. The data were analyzed using Biacore 8K analysis software (version No. 2.0) based on the 1:1 binding model to fit the antibody-antigen binding kinetic parameters, including the association rate constant ka, the dissociation rate constant kd, and the equilibrium dissociation constant KD. The affinity values of the control antibody DS-H01L02 were undetectable. Antibodies not shown in the table had undetectable affinity values.
Four hCDH6-1 humanized antibodies with fewer back mutations were selected, and the affinity for human CDH6 protein was further confirmed using Biacore.

[3] = molecular target: T1, his-tagged human CDH6 extracellular …; assay: SPR Biacore, antibody captured on Protein A; remark: listed apart in the source
Method: as §1
Four hCDH6-6 humanized antibodies with fewer back mutations were selected, and the affinity for human CDH6 protein was further confirmed using Biacore.

Row | Binder | EC50 [1] | Max OD450 [1] | Kd [2] | koff [2] | kon [2] | Kd [3] | koff [3] | kon [3]
1 | CHI-CDH6-1 (antibody, human IgG1, kappa, V domains shown, also called CHI-hCDH6-1; CH1-CDH6-1) VH: QVQLQQPGAELVRPGSSVKLSCKASGYTFTNYWMHWVKQRPIEGLEWIGDIDPSHSETHYTQKFKDKATLTVDKSSSTAYMQLSSLTSEDSAVYYCARGDLGRFDYWGQGTTLTVSS VL: DIVLTQSPASLAVSLGQRATISCRASESVSIHGTHLMHWYQQKSGQPPKLLIYAASNLESGVPARFSGSGSETDFTFNIHPVEEEDAATYFCQQSFEDPWTFGGGTKLEIKR | 0.032 nM | 2.59 OD450 | 11.4 nM | 0.00504 s⁻¹ | 442000 M⁻¹ s⁻¹ | – | – | –
2 | CHI-CDH6-6 (antibody, human IgG1, kappa, V domains shown, also called CHI-hCDH6-6; chimeric antibody of murine CDH6-6) VH: EVQLQQSGPELVKPGDSVKMSCKASGYTFTDYYMAWVRQSHRKSLEWIGYIFPNSGGTDYSQKFKGKATLTVDKSSSTVYMELHSLTSEDSAVYYCARELGADYGDYYAMDHWGQGTSVSVSS VL: DIQMTQSPASLSASVGETVTITCRASENIDSYLAWYQQKQGKSPQLLVYSATLLADGVPSRFSGSGSGTQYSLKINSLKSEDVARYYCQHYYRTPPTFGSGTKLEIKR | – | – | – | – | – | 87.1 nM | 0.00424 s⁻¹ | 48700 M⁻¹ s⁻¹
3 | hCDH6-6-H2L2 (antibody, V domains shown, Humanized) VH: EVQLVQSGAEVKKPGASVKVSCKASGYTFTDYYMAWVRQAPGQGLEWMGYIFPNSGGTDYSQKFKGRVTLTVDKSTSTVYMELSSLRSEDTAVYYCARELGADYGDYYAMDHWGQGTTVTVSS VL: DIQMTQSPSSLSASVGDRVTITCRASENIDSYLAWYQQKPGKSPKLLVYSATLLADGVPSRFSGSGSGTDYTLTISSLQPEDFATYYCQHYYRTPPTFGQGTKLEIK | – | – | – | – | – | 89.8 nM | 0.00468 s⁻¹ | 52100 M⁻¹ s⁻¹
4 | hCDH6-1-H2L3 (antibody, V domains shown, Humanized) VH: EVQLVQSGAEVKKPGSSVKVSCKASGYTFTNYWMHWVRQAPGQGLEWMGDIDPSHSETHYTQKFKDRVTITVDKSTSTAYMELSSLRSEDTAVYYCARGDLGRFDYWGQGTTVTVSS VL: DIQMTQSPSSLSASVGDRVTITCRASESVSIHGTHLMHWYQQKPGKPPKLLIYAASNLESGVPSRFSGSGSETDFTFTISSLQPEDIATYYCQQSFEDPWTFGGGTKVEIK | 0.029 nM | 2.61 OD450 | 18 nM | 0.00821 s⁻¹ | 457000 M⁻¹ s⁻¹ | – | – | –

— patent US20260234242A1 (HAINAN SIMCERE ZAIMING PHARMACEUTICAL, published 2026)
